{
  "source": "patent US20190062438A1",
  "about": "(CSL, published 2019)",
  "assay_in_all_cases": "SPR, kinetics, Fab over captured mutant",
  "key": {"shCD131 V104A": {"target": "T1, shCD131 V104A (human, UniProt P32927 17-438)", "T1 construct": "C-terminal 6xHis", "T1 sequence": "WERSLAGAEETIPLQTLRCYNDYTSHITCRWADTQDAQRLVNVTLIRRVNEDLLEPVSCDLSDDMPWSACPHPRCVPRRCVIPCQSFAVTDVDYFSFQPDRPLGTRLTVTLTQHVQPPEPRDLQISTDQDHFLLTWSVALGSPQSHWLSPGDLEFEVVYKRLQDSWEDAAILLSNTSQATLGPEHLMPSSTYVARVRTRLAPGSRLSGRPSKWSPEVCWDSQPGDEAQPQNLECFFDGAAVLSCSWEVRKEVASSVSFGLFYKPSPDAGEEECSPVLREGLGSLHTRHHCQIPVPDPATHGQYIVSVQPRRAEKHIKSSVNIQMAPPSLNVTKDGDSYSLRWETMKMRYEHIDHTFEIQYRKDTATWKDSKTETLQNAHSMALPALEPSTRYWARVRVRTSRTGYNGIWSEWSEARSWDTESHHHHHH"}, "shCD131 D107A": {"target": "T2, shCD131 D107A (human, UniProt P32927 17-438)", "T2 construct": "C-terminal 6xHis", "T2 sequence": "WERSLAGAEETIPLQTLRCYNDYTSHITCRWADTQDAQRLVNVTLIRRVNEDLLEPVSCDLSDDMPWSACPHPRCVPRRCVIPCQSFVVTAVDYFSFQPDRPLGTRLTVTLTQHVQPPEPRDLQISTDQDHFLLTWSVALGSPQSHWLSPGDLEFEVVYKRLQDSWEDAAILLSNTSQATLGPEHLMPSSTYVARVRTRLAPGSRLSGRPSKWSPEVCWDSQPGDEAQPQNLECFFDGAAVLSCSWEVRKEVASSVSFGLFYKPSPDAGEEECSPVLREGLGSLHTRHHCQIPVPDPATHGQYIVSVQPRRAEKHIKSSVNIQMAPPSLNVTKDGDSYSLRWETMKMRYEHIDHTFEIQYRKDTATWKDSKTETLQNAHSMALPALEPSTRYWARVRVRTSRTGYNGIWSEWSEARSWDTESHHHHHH"}, "shCD131 Y421A": {"target": "T3, shCD131 Y421A (human, UniProt P32927 17-438)", "T3 construct": "C-terminal 6xHis", "T3 sequence": "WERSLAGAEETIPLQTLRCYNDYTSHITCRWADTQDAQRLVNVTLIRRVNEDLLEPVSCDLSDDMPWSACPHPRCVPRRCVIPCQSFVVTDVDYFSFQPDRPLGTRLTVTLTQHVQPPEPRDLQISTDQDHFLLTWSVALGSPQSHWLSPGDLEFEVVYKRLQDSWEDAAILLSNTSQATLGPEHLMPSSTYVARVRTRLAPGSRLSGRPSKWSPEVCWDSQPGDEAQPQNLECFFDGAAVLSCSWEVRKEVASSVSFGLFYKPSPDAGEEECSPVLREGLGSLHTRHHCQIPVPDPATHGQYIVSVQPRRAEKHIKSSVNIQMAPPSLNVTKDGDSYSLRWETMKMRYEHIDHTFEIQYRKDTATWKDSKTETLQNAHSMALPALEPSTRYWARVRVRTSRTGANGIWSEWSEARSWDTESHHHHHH"}, "shCD131 I424A": {"target": "T4, shCD131 I424A (human, UniProt P32927 17-438)", "T4 construct": "C-terminal 6xHis; also called 1424A", "T4 sequence": "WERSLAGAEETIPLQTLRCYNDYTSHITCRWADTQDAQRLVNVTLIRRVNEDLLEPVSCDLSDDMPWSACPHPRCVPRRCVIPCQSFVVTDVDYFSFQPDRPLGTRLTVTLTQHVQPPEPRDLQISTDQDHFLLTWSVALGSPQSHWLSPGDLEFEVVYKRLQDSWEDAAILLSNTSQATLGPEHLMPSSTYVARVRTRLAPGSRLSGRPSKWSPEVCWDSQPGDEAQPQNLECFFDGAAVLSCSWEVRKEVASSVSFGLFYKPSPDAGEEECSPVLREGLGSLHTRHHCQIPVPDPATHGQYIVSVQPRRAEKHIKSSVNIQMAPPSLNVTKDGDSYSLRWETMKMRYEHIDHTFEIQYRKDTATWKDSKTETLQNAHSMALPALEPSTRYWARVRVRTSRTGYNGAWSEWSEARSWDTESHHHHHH"}},
  "data": [
    {"binder": "9A2 Fab (Fab, V domains shown, also called recombinant Fab of 9A2) VH: EVQLLESGGGLVQPGGSLRLSCAASGFTFSHYHMLWVRQAPGKGLEWVSSIRSSGGFTYYADSVKGRFTISRDNSKNTLYLQMNSLRAEDTAVYYCARFYDSFFDIWGQGTMVTVSS VL: DIQMTQSPSSVSASVGDRVTITCRASQGISSWLAWYQQKPGKAPKLLIYAASSLQSGVPSRFSGSGSGTDFTLTISSLQPEDFATYYCQQANSFPITFGQGTRLEIKR", "values": [
      {"measurement": "Kd", "setting": "shCD131 V104A", "result": 117, "unit": "nM"},
      {"measurement": "Kd", "setting": "shCD131 D107A", "result": 191, "unit": "nM"},
      {"measurement": "Kd", "setting": "shCD131 Y421A", "result": 167, "unit": "nM"},
      {"measurement": "Kd", "setting": "shCD131 I424A", "result": 126, "unit": "nM"}
    ]}
  ]
}
